The supplement of paper PMC7877785
± gives the uncertainty stated by the source.

Assay: self-splicing fitness, log relative to wild type (ln ratio); higher = more splicing; Tetrahymena group I intron in knt gene, E. coli kanamycin selection, DiMSum; sequences stand for … in CUCUCU…GGAGGGAAAAGUUAUCAGGCAUGCACCUGGUAGCUAGUCUUUAAACCAAUAGAUUGCAUCGGUUUAAAAGGCAAGACCGUCAAAUUGCGGGAAAGGGGUCAACAGCCGUUCAGUACCAAGUCUCAGGGGAAACUUUGAGAUGGCCUUGCAAAGGGUAUGGUAAUAAGCUGACGGACAUGGUCCUAACCACGCAGCCAAGUCCUAAGUCAACAGAUCUUCUGUUGAUAUGGAUGCAGUUCACAGACUAAAUGUCGGUCGGGGAAGAUGUAUUCUUCUCAUAAGAUAUAGUCGGACCUCUCCUUAAUGGGAGCUAGCGGAUGAAGUGAUGCAACACUGGAGCCGCUGGGAACUAAUUUGUAUGCGAAAGUAUAUUGAUUAGUUUUGGAGUACUCGUGGUCG
Procedure, shortened: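 Fitness was computed with DiMSum as the error-weighted combination of replicate fold changes, kanamycin versus none, each normalised to wild type. The library randomised all eight intron nucleotides of the P1ex region, with the intron placed in the knt kanamycin-resistance gene on pET-22b(+) in E. coli BL21(DE3). Six replicate transformations were grown overnight at 37°C or 30°C on LB agar with or without 25 μg/mL kanamycin, plus 100 μg/mL carbenicillin, 50 μM IPTG and 0.2% rhamnose. Pooled colonies were amplicon-sequenced on an Illumina HiSeq 2500.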

Sequence	self-splicing fitness (ln) (30 °C)	self-splicing fitness (ln) (37 °C)
ACGUAGCAAUAUUACGCCUU	-1.42 ± 0.064	-0.00228 ± 0.076
GUGGAGCAAUAUUACGAGCC	–	-1.59 ± 0.35
UAAGAGCAAUAUUACGCUCG	–	-0.845 ± 0.23
UUAAAGCAAUAUUACGUCGG	-0.114 ± 0.074	0.43 ± 0.091
CCUAAGCAAUAUUACGCUAU	-4.71 ± 0.39	-2.35 ± 0.24
UGUAAGCAAUAUUACGACGG	-1.46 ± 0.11	-0.11 ± 0.12
UCACAGCAAUAUUACGACUA	-1.21 ± 0.14	-0.431 ± 0.12
CUUCAGCAAUAUUACGCGUG	-0.775 ± 0.08	-0.978 ± 0.1
ACGCAGCAAUAUUACGAUGU	-2.13 ± 0.057	-1.16 ± 0.078
UUCGAGCAAUAUUACGCGUC	-2.99 ± 0.23	-2.34 ± 0.37
UGGCAGCAAUAUUACGGAGA	-2.9 ± 0.42	-1.46 ± 0.41
UUCAAGCAAUAUUACGCUGC	-2.71 ± 0.3	-1.92 ± 0.23
GAUAAGCAAUAUUACGAUAC	-1.52 ± 0.18	-1.63 ± 0.27
CCGCAGCAAUAUUACGAGAC	-2.24 ± 0.22	–
CGCUAGCAAUAUUACGAACG	-2.16 ± 0.099	-1.1 ± 0.11
UAUGAGCAAUAUUACGGCUU	–	-1.62 ± 0.32
AGUGAGCAAUAUUACGCAAG	-2.68 ± 0.22	-2.98 ± 0.26
CUGAAGCAAUAUUACGAUAC	-2.44 ± 0.32	-1.94 ± 0.36
UCGGAGCAAUAUUACGAGCU	-2.89 ± 0.27	–
CCGAAGCAAUAUUACGCCAC	–	-1.9 ± 0.34

Sequence	self-splicing fitness (ln) (30 °C)	self-splicing fitness (ln) (37 °C)
AUACAGCAAUAUUACGAUAA	-1.37 ± 0.099	-0.374 ± 0.11
UCUUAGCAAUAUUACGGCAA	–	-1.57 ± 0.37
GGCAAGCAAUAUUACGGUUG	-1.16 ± 0.063	-0.62 ± 0.083
GAAUAGCAAUAUUACGCUCA	-0.0838 ± 0.16	0.784 ± 0.18
GAUUAGCAAUAUUACGCAUG	-0.728 ± 0.14	-0.334 ± 0.17
CGCCAGCAAUAUUACGACAG	-0.00427 ± 0.052	0.18 ± 0.067
ACGGAGCAAUAUUACGACGC	-1.26 ± 0.15	-1.11 ± 0.17
GACGAGCAAUAUUACGGUCC	-3.83 ± 0.25	-1.74 ± 0.23
ACCAAGCAAUAUUACGAAUG	-3.18 ± 0.1	-1.78 ± 0.1
ACGGAGCAAUAUUACGUGCG	-2.63 ± 0.17	-1.79 ± 0.18
CUUCAGCAAUAUUACGUGGG	-3.96 ± 0.16	-2.38 ± 0.19
ACUCAGCAAUAUUACGGGCU	-0.98 ± 0.067	-0.954 ± 0.095
CAGGAGCAAUAUUACGACCG	0.66 ± 0.2	0.00703 ± 0.17
ACGGAGCAAUAUUACGGCCU	-2.12 ± 0.17	-1.2 ± 0.21
UCGGAGCAAUAUUACGUCGG	-1.7 ± 0.24	-2.04 ± 0.28
GUCCAGCAAUAUUACGUCGG	-3.83 ± 0.41	-1.39 ± 0.2
GCAUAGCAAUAUUACGCAGA	-2.62 ± 0.31	-2.06 ± 0.17
AACUAGCAAUAUUACGUGCU	-2.24 ± 0.083	-1.97 ± 0.12
UUACAGCAAUAUUACGAGCG	-0.688 ± 0.088	-0.631 ± 0.096
UAUUAGCAAUAUUACGGGCC	-2.84 ± 0.42	–
